In the Human Domainome abundance scans (Beltran et al. 2025):
± gives the uncertainty stated by the source.

B1: Mineralocorticoid receptor, residues 600 to 675; numbered along this chain, P08235 (parent)
chain: SKICLVCGDEASGCHYGVVTCGSCKVFFKRAVEGQHNYLCAGRNDCIIDKIRRKNCPACRLQKCLQAGMNLGARKS
B2: Membrane-associated guanylate kinase, WW and PDZ domain-containing protein 1, residues 352 to 401; numbered along this chain, Q96QZ7 (parent)
chain: TEELDSELELPAGWEKIEDPVYGIYYVDHINRKTQYENPVLEAKRKKQLE

Variants of: B1
Assay: abundance fitness (aPCA) (normalised: wild type 0, dead -1); higher = more abundant; growth selection in yeast, the domain comes from the species named
Settings: Homo sapiens

Variant | abundance fitness
DKICLVCGDEASGCHYGVVTCGSCKVFFKRAVEGQHNYLCAGRNDCIIDKIRRKNCPACRLQKCLQAGMNLGARKS [S1D] | -0.406 ± 0.32
GKICLVCGDEASGCHYGVVTCGSCKVFFKRAVEGQHNYLCAGRNDCIIDKIRRKNCPACRLQKCLQAGMNLGARKS [S1G] | -0.087 ± 0.06
AKICLVCGDEASGCHYGVVTCGSCKVFFKRAVEGQHNYLCAGRNDCIIDKIRRKNCPACRLQKCLQAGMNLGARKS [S1A] | -0.136 ± 0.063
FKICLVCGDEASGCHYGVVTCGSCKVFFKRAVEGQHNYLCAGRNDCIIDKIRRKNCPACRLQKCLQAGMNLGARKS [S1F] | -0.048 ± 0.1

Variants of: B2
Assay: as above
Settings: Homo sapiens

Variant | abundance fitness
Y36L | -0.048 ± 0.063
Y36P | -0.161 ± 0.046
Y36V | -0.11 ± 0.059
Y36N | -0.176 ± 0.063
Y36E | -0.172 ± 0.041
Y36D | -0.32 ± 0.069
Y36F | -0.308 ± 0.085
E3Q | -0.226 ± 0.41
E3P | -0.744 ± 0.33
E3A | -0.425 ± 0.34
K46A | -0.063 ± 0.058
K46W | -0.331 ± 0.056
K46P | -0.044 ± 0.087
K46M | -0.328 ± 0.088
K46L | -0.133 ± 0.064
K46R | -0.094 ± 0.056
K46V | -0.065 ± 0.041
K46C | -0.103 ± 0.046
K46Q | -0.026 ± 0.064
E2W | 0.113 ± 0.1
E2L | -0.35 ± 0.15
E2V | -0.02 ± 0.042
E2C | 0.319 ± 0.12
E2K | -0.214 ± 0.17
E2T | 0.129 ± 0.1
E2Q | -0.145 ± 0.12

Variant | abundance fitness
E2S | -0.191 ± 0.096
K47Y | -0.207 ± 0.06
K47H | -0.172 ± 0.059
K47L | -0.008 ± 0.053
K47E | -0.25 ± 0.094
K47T | -0.077 ± 0.044
K47Q | 0.013 ± 0.059
K47G | -0.169 ± 0.057
E7T | 0.053 ± 0.071
E7M | -0.046 ± 0.098
E7H | -0.217 ± 0.072
E7F | -0.236 ± 0.068
E7Y | -0.399 ± 0.12
Q48K | -0.035 ± 0.055
Q48S | -0.035 ± 0.049
Q48R | -0.227 ± 0.052
Q48F | -0.339 ± 0.13
Q48P | -0.528 ± 0.077
Q48Y | -0.152 ± 0.052
Q48W | -0.26 ± 0.075
E37Y | -0.611 ± 0.089
E37A | -0.192 ± 0.053
E37H | -0.321 ± 0.11
E37F | -0.438 ± 0.054
E37V | -0.286 ± 0.048
E37C | -0.292 ± 0.051

Variant | abundance fitness
E37M | -0.296 ± 0.07
E37N | -0.005 ± 0.098
E37G | -0.213 ± 0.044
H29F | -0.682 ± 0.14
H29K | -0.157 ± 0.071
H29D | -0.535 ± 0.091
H29A | -0.229 ± 0.056
H29L | -0.156 ± 0.042
T34L | -0.603 ± 0.079
T34G | -0.453 ± 0.061
T34R | -0.035 ± 0.05
T34I | -0.502 ± 0.076
T34K | -0.219 ± 0.088
V27N | -0.34 ± 0.12
V27R | -0.069 ± 0.044
V27I | -0.178 ± 0.098
V27E | -0.229 ± 0.056
E50H | -0.699 ± 0.28
E50R | -0.841 ± 0.23
E50D | 0.006 ± 0.1
E50L | -0.223 ± 0.18
E50Q | -0.438 ± 0.18
E50T | -0.174 ± 0.046
P11W | -0.519 ± 0.088
